B1: NodST (Sinorhizobium meliloti 1021) (protein)
chain: MTHSTLPPQPFAILAMPRTGTHYLEELVNEHPNVLSNGELLNTYDTNWPDKERLLLSDRELLERAFLRYPPHSDKKVTHVGCKINEPQFQERPSFFAELTAWPGLKVILVIRRNTLESLRSFVQARQTRQWLKFKSDSSAPPPPVMLPFATCEAYFKAADDFHARVVYAFDSSRIRLIEYERLLRDPVPCVATVLDFLGAPALQLADRGILRRQETRPLDQTVRNFHELRVHFANGPYARFFELAND
B2: βAST-IV (Rattus norvegicus) (protein)
chain: MEFSRPPLVHVKGIPLIKYFAETIGPLQNFTAWPDDLLISTYPKSGTTWMSEILDMIYQGGKLEKCGRAPIYARVPFLEFKCPGVPSGLETLEETPAPRLLKTHLPLSLLPQSLLDQKVKVIYIARNAKDVVVSYYNFYNMAKLHPDPGTWDSFLENFMDGEVSYGSWYQHVKEWWELRHTHPVLYLFYEDIKENPKREIKKILEFLGRSLPEETVDSIVHHTSFKKMKENCMTNYTTIPTEIMDHNVSPFMRKGTTGDWKNTFTVAQNERFDAHYAKTMTDCDFKFRCEL
notes: made in house; host or cells: E. coli BL21(DE3)

Columns and labels:
[1] = substrate: CC(=O)N[C@H]1[C@H](O[C@H]2[C@H](O)[C@@H](NC(C)=O)C(O)O[C@@H]2CO)O[C@H](CO)[C@@H](O[C@@H]2O[C@H](CO)[C@@H](O)[C@H](O)[C@H]2NC(C)=O)[C@@H]1O; assay: purified protein, by the assay type; settings: pH 7.0
[2] = substrate: CC(=O)N[C@H]1[C@H](O[C@H]2[C@H](O)[C@@H](NC(C)=O)C(O)O[C@@H]2CO)O[C@H](CO)[C@@H](O[C@@H]2O[C@H](CO)[C@@H](O[C@@H]3O[C@H](CO)[C@@H](O)[C@H](O)[C@H]3NC(C)=O)[C@H](O)[C@H]2NC(C)=O)[C@@H]1O; assay: Continuous spectrophotometric coupled-enzyme assay of NodST with βAST-IV PAPS regeneration; type: biochemical, Rhizobium melioti; settings: other: apparent value, coupled assay, 20 μM PAPS, pH 7.0
Method: (§1) 100 mM bis-tris propane-HCl, pH 7.0, 5 mM 2-mercaptoethanol, 20 μM PAPS, 2 mM p-nitrophenyl sulfate, 3.0 mU NodST, 6.4 mU β-AST IV, and substrate are combined to a total volume of 500 μL. Because commercial PAPS contains significant amounts of PAP, the assay solution is incubated for 30 minutes at 20° C. prior to addition of substrate. The evolution of p-nitrophenol is monitored at 400 nm for 10 minutes.
(§2) All reactions were run in a total volume of 500 μL at 25° C. […] The amount of NodST added to each series of acceptor concentrations is varied over 1.2, 1.8, 3.0, and 4.2 mU. Because commercial PAPS contains significant amounts of PAP, the assay solution is incubated for 30 minutes at 20° C. prior to addition of substrate. The evolution of p-nitrophenol is monitored at 400 nm for 10 minutes.
(§3) 3.0 mU of NodST was used in each reaction. The Km for each series of PAP concentrations was calculated and the values were compared.

[3] = substrate: CC(=O)N[C@H]1[C@H](O[C@H]2[C@H](O)[C@@H](NC(C)=O)[C@H](O[C@H]3[C@H](O)[C@@H](NC(C)=O)C(O)O[C@@H]3CO)O[C@@H]2CO)O[C@H](CO)[C@@H](O[C@@H]2O[C@H](CO)[C@@H](O[C@@H]3O[C@H](CO)[C@@H](O)[C@H](O)[C@H]3NC(C)=O)[C@H](O)[C@H]2NC(C)=O)[C@@H]1O; assay: as above; type: biochemical, Rhizobium melioti; settings: other: coupled assay; pH 7.0
Method: as §1, §2, §3

[4] = substrate: Nc1ncnc2c1ncn2[C@@H]1O[C@H](COP(=O)(O)O)[C@@H](OP(=O)(O)O)[C@H]1O; assay: Reverse-physiological reaction of βAST-IV (PAPS from PAP and p-nitrophenyl sulfate); type: biochemical, rat; settings: other: 10 mM p-nitrophenyl sulfate, pH 7.0, 25° C., FIG. 6 legend
Method: All capillary zone electrophoresis (CZE) was run in 0.23 M borate in running buffer at pH 7.8. The column was pre-washed with H2 O (1 min), 1 N NaOH (1 min), and running buffer (2 min). The sample was pressure injected at 20 psi sec and electrophoresis was run with 20.0 kV (- to +) at 20° C. with detection at 260 nm. CZE of 1 mM standards PAPS, PAP, and 3'-adenosine monophosphate (3'-AMP) were run to determine retention times. The reverse-physiological reaction assay mixture, a 500 μL solution containing 50 mM bis-tris propane-HCl buffer at pH 7.0, 1 mM 2-mercaptoethanol, 10 mM p-nitrophenyl sulfate, and 1 mM PAP at 25° C., was subjected to CZE prior to addition of enzyme (t=0). 5 mU βAST-IV was added and CZE was repeated 30 minutes after initiation. The reaction was then diluted 100-fold and CZE was run again. A 2.0 μL internal standard of 10 mM PAPS was added, and CZE was repeated.
βAST-IV activity in the reverse-physiological reaction was determined at 25° C. with a total volume of 500 μL. The reverse-physiological assay above was used with varying PAP concentration (15.6, 31.3, 62.5, 125, 250, 500 μM). Measurement of initial velocity was conducted over 10 seconds at 400 nm, and an extinction coefficient of 1064 was used to calculate p-nitrophenol concentration at pH 7.0. […]

[5] = other: apparent value, coupled assay, 20 μM PAPS

Protein | Km ([1]; other: 20, 40 and 100 μM PAPS, all three within 10% variation, 3.0 mU NodST) [µM] | Km [1, 5] [µM] | kcat [1, 5] [s⁻¹] | Km [2] [µM] | kcat [2] [s⁻¹] | Km [3] [μμM] | Km [4] [µM]
B1 | 243 | 103 | 0.458 | 20.4 ± 3.6 | 0.328 ± 0.013 | 98.1 | –
B2 | – | – | – | – | – | – | 26.4 ± 3.4
